What was measured:
WT-mcGAScat = WT-mcGAScat (mouse, UniProt Q8C6L5 147-507); assay: crystal structure; 2'-dATP; FA: 5 nM FAM-dsDNA, as previously reported (reaction buffer likely 25 mM Tris-acetate pH 7.4, 125 mM KAc, 5 mM MgAc2, 1 mM TCEP, 5% glycerol, 25 C); crystals: 0.2 M ammonium acetate, 32% MPD, 0.1 M Bis-Tris pH 6.5, 4 C; details: protein: recombinant; tags: none left (N-terminal 6xHis-MBP removed by TEV); chain copies: 2; blunt; self-complementary, 2 copies of the strand
QN-mcGAScat = QN-mcGAScat (mouse, UniProt Q8C6L5 147-507, E211Q;D213N); assay: crystal structure; ATP, GTP, Mg2+; FA: 5 nM FAM-dsDNA, as previously reported (reaction buffer likely 25 mM Tris-acetate pH 7.4, 125 mM KAc, 5 mM MgAc2, 1 mM TCEP, 5% glycerol, 25 C); crystals: 0.2 M ammonium acetate, 32% MPD, 0.1 M Bis-Tris pH 6.5, 4 C; details: protein: recombinant; tags: none left (N-terminal 6xHis-MBP removed by TEV); chain copies: 2; blunt; self-complementary, 2 copies of the strand
Chain of QN-mcGAScat (Q8C6L5 147-507 E211Q/D213N): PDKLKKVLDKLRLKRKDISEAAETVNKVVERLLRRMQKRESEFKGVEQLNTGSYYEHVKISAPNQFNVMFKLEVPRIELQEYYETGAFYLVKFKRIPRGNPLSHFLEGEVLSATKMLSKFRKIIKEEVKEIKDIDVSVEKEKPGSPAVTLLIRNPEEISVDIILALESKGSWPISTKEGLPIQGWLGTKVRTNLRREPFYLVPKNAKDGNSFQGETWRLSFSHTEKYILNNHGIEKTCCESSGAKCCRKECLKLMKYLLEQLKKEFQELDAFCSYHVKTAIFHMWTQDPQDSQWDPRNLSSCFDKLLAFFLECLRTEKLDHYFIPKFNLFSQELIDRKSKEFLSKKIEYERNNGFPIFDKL

Chain of WT-mcGAScat (Q8C6L5 147-507): as the sequence (Q8C6L5 147-507 E211Q/D213N) above, with Q65E, N67D counted along it

B1: 18-bp palindromic dsDNA (dsDNA)
DNA 1: ATCTGTACATGTACAGAT
DNA 2: ATCTGTACATGTACAGAT
- binding result (WT-mcGAScat): binds
- binding result (QN-mcGAScat): binds

— paper PMC11091121, “The structural basis for 2′−5′/3′−5′-cGAMP synthesis by cGAS”
